# Experimental data reported in paper PMC5717197, “Mechanistic insight into TRIP13-catalyzed Mad2 structural transition and spindle checkpoint silencing” (Nature Communications, 2017).
# Substitutions are numbered along the chain they refer to.
# B1: Cdc20N-His6 (residues 1-170 of human Cdc20) (domain or fragment, UniProt Q12834 1-170, looked up)
# chain: MAQFAFESDLHSLLQLDAPIPNAPPARWQRKAKEAAGPAPSPMRAANRSHSAGRTPGRTPGKSSSKVQTTPSKPGGDRYIPHRSAAQMEVASFLLSKENQPENSQTPTKKEHQKAWALNLNGFDVEEAKILRLSGKPQNAPEGYQNRLKVLYSQKATPGSSRKTCRYIPS
# notes: Cdc20, human, residues 1-170; Coupled to SulfoLink Coupling Resin in the bead assays; also called Cdc20 N-terminal 170-residue fragment; source: E. coli BL21 (DE3), purified from 8 M urea (Ni-NTA), dialysed
# B2: TRIP13 wild type (enzyme, human, UniProt Q15645 1-432, looked up)
# chain: MDEAVGDLKQALPCVAESPTVHVEVHQRGSSTAKKEDINLSVRKLLNRHNIVFGDYTWTEFDEPFLTRNVQSVSIIDTELKVKDSQPIDLSACTVALHIFQLNEDGPSSENLEEETENIIAANHWVLPAAEFHGLWDSLVYDVEVKSHLLDYVMTTLLFSDKNVNSNLITWNRVVLLHGPPGTGKTSLCKALAQKLTIRLSSRYRYGQLIEINSHSLFSKWFSESGKLVTKMFQKIQDLIDDKDALVFVLIDEVESLTAARNACRAGTEPSDAIRVVNAVLTQIDQIKRHSNVVILTTSNITEKIDVAFVDRADIKQYIGPPSAAAIFKIYLSCLEELMKCQIIYPRQQLLTLRELEMIGFIENNVSKLSLLLNDISRKSEGLSGRVLRKLPFLAHALYVQAPTVTIEGFLQALSLAVDKQFEERKKLAAYI
# notes: TRIP13, human; its own AUC and gel filtration show no discrete oligomer; also called TRIP13 WT; source: E. coli BL21 (DE3), purified (Ni-NTA, TEV, Resource Q, Superdex 200); not shown: His6, N-terminal, cleaved
# B3: TRIP13 G320A (enzyme, human, UniProt Q15645 1-432, looked up)
# chain: B2 chain with G320A
# notes: TRIP13, human; source: E. coli BL21 (DE3), purified (Ni-NTA, TEV, Resource Q, Superdex 200); not shown: His6, N-terminal, cleaved
# B4: MBP1 peptide (peptide)
# peptide: SWYSYPPPQRAVC
# notes: Coupled to SulfoLink Coupling Resin in the bead assays; source: synthetic peptide (Protein Chemistry Technology Core, UTSW)
# Tests used:
# [1] = molecular target: T1, His6-Mad2 (containing the C79S and C106S mutations) (human, UniProt Q13257 1-205, C79S | C106S); experiment: pull-down; Mad2 dissociation assay: MBP1 or Cdc20N coupled to SulfoLink resin, loaded with His6-Mad2 (0.5 mg/ml), washed, then TRIP13 and ΔN35-p31comet with 1 mM ATP for 30-60 min; Reaction Buffer (25 mM Tris pH 7.5, 200 mM NaCl, 10 mM MgCl2, 1 mM DTT, 5% glycerol, 0.05% Tween), room temperature; bound proteins by SDS-PAGE and Coomassie; conditions: both partners purified
# T1 construct: Mad2, human; C79S and C106S to avoid disulfide formation in vitro; The His6 tag was not cleaved; also called C-Mad2; source: E. coli BL21 (DE3), purified (Ni-NTA, Resource Q, Superdex 200 Increase); not shown: His6, N-terminal, kept
# T1 sequence (Q13257 whole entry C79S/C106S): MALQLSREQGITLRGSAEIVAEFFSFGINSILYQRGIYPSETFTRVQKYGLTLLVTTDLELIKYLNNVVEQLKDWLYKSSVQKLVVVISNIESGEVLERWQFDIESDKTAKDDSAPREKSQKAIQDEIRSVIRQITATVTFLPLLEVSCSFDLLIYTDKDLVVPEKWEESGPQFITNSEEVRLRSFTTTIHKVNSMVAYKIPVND
# [2] = molecular target: the molecule itself; experiment: SEC; gel filtration column in the presence of ATP
Binder,binding result [1],binding result [2]
B1,binds,
B2,,binds
B3,,binds
B4,binds,
